Biological target: MBP‐Spz, maltose‐binding protein‐tagged Spz (Drosophila melanogaster) (UniProt P48607)
Sequence of UniProt P48607 (P48607 26-326): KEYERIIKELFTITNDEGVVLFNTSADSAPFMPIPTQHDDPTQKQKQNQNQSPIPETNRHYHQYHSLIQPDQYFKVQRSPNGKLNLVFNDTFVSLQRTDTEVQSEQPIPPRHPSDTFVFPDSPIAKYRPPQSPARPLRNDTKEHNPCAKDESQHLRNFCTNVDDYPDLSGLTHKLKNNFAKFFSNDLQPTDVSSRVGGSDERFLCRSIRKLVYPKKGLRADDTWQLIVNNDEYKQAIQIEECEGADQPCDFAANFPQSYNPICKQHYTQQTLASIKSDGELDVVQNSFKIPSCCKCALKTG

## GST‐ETS1, glutathione S‐transferase‐tagged ETS1 (enzyme)
  degradation of Spz by purified ETS1 (SDS‐PAGE band intensity, 0–4 h, 1 mM each CoCl2 and CaCl2): about half within 1 h, 80% after 4 h: 80%
